Literature values, collected in PMC4028615.

Target: integrin (LFA-1) (Homo sapiens) (UniProt P20701)
Sequence (P20701 26-1090, chain 1 of 2): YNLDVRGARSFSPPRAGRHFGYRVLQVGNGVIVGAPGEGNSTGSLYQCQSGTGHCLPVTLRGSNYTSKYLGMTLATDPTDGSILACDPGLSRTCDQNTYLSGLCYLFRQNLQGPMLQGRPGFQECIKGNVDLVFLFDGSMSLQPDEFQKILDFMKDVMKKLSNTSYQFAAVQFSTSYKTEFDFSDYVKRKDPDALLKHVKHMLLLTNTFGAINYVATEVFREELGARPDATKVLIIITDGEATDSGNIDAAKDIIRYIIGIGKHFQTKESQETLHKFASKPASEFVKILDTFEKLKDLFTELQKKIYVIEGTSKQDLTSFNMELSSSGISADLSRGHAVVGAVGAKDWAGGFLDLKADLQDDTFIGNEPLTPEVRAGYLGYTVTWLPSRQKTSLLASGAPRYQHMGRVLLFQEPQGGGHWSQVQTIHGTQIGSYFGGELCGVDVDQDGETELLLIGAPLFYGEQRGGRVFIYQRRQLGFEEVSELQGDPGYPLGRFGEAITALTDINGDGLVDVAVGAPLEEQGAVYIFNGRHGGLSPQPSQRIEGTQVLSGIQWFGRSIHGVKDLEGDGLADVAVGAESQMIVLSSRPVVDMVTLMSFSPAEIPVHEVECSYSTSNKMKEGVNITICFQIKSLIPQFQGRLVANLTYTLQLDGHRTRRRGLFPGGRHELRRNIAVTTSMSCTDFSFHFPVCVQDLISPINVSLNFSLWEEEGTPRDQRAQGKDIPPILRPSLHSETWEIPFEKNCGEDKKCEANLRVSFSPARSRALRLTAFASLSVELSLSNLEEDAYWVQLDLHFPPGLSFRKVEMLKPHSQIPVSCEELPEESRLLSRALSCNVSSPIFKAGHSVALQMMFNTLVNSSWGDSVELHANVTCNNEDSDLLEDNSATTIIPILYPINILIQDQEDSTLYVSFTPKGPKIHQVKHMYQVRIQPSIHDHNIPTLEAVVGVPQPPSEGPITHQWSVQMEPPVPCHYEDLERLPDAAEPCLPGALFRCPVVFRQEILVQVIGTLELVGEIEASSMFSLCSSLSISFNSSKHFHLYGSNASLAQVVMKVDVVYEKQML
Sequence (P05107 23-700, chain 2 of 2, further chain): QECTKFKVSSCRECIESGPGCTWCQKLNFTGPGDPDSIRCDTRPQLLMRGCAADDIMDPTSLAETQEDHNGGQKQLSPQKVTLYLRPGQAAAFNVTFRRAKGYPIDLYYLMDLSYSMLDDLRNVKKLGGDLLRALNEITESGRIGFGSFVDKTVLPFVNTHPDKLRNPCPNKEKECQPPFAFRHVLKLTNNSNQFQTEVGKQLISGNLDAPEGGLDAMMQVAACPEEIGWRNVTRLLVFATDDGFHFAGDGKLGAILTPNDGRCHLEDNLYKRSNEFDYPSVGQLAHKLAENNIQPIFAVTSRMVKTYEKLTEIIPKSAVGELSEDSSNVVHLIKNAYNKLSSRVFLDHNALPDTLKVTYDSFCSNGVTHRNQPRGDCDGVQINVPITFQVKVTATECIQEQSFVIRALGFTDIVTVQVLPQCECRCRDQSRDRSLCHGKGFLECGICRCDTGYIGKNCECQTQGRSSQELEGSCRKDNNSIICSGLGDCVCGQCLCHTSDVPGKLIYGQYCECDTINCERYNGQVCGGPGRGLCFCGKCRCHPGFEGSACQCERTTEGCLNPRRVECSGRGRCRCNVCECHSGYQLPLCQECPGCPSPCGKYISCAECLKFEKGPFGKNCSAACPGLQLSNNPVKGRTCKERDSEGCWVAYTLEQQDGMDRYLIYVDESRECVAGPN

Sequence of ICAM-1 (P05362 28-480): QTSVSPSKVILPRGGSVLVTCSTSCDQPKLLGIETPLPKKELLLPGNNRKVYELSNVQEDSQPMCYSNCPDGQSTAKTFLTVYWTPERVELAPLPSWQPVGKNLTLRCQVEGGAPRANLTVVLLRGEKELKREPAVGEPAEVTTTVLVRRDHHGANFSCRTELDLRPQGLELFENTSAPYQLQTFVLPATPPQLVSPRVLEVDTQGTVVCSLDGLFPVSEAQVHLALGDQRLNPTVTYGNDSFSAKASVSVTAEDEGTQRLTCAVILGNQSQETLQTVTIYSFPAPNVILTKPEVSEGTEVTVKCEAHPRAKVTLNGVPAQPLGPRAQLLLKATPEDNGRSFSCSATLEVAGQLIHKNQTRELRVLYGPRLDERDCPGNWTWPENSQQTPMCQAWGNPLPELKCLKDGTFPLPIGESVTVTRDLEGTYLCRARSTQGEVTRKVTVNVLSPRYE

In the case of ICAM-1 (from UniProt P05362), the Kd is given as 0.1 µM.
